Residue numbers refer to the chain shown, from its start. Names and notes keep the numbering of the source.
Substrate: O=C(O)[C@@H](O)[C@H](O)[C@H](O)[C@@H](O)C(=O)O
Test: purified protein
Format: biochemical, Oceanobacillus iheyensis
Settings: 50 mM Hepes pH 8.0, 5 mM MgCl2

B1: Ob2843; galactarate dehydratase GalrD-II (Oceanobacillus iheyensis HTE831) (protein)
chain: MKITDLELHAVGIPRHTGFVNKHVIVKIHTDEGLTGIGEMSDFSHLPLYSVDLHDLKQGLLSILLGQNPFDLMKINKELTDNFPETMYYYEKGSFIRNGIDNALHDLCAKYLDISVSDFLGGRVKEKIKVCYPIFRHRFSEEVESNLDVVRQKLEQGFDVFRLYVGKNLDADEEFLSRVKEEFGSRVRIKSYDFSHLLNWKDAHRAIKRLTKYDLGLEMIESPAPRNDFDGLYQLRLKTDYPISEHVWSFKQQQEMIKKDAIDIFNISPVFIGGLTSAKKAAYAAEVASKDVVLGTTQELSVGTAAMAHLGCSLTNINHTSDPTGPELYVGDVVKNRVTYKDGYLYAPDRSVKGLGIELDESLLAKYQVPDLSWDNVTVHQLQDRTADTKS
- Km: 620 ± 380 µM
- kcat: 6.8 ± 1.2 s⁻¹
- kcat/Km: 11000 M⁻¹ s⁻¹

B2: Ob2843; galactarate dehydratase GalrD-II (Oceanobacillus iheyensis HTE831; Y90F) (protein)
chain: B1 chain with Y90F
- Km: 2000 ± 480 µM
- kcat: 0.0061 ± 0.006 s⁻¹
- kcat/Km: 3.1 M⁻¹ s⁻¹

From paper PMC2787699
